Data published in US7038112B2, “Fatty acid elongases” (Miami University, priority 1997, dated 2006).
Like-named read-outs stand apart in the source and are kept apart here.

How the values were obtained:
[1] = In vitro fatty acid elongation assay with yeast microsomes, 18:0 acyl-CoA substrate; assay type: biochemical, Saccharomyces cerevisiae; details: for (%) 20:0 acyl CoA / (%) 22:0 acyl CoA / (%) 24:0 acyl CoA / (%) 26:0 acyl CoA / (%) Total / Rate, 20:0 acyl CoA / Rate, 22:0 acyl CoA / Rate, 24:0 acyl CoA / Rate, 26:0 acyl CoA / Rate, Total: second experiment
Procedure: (§1) Transformed yeast cells were grown in the presence of either glucose or galactose (2% w/v) as described in Example 1. Cells were harvested by centrifugation at 5000×g for 10 min and washed with 10 ml ice cold isolation buffer (IB), which contains 80 mM Hepes-KOH, pH 7.2, 5 mM EGTA, 5 mM EDTA, 10 mM KC1, 320 mM sucrose and 2 mM DTT). Cells were then resuspended in enough IB to fill a 1.7 ml tube containing 700 μl of 0.5 μm glass beads and yeast microsomes were isolated from the cells essentially as described in Tillman, T. and Bell, R., J. Biol. Chem. 261:9144–9149 (1986). The microsomal membrane pellet was recovered by centrifugation at 252,000×g for 60 min. The pellet was rinsed by resuspending in 40 ml fresh IB and again recovered by centrifugation at 252000×g for 60 min. Microsomal pellets were resuspended in a minimal volume of IB, and the protein concentration adjusted to 2.5 μg μl^−1 by addition of IB containing 15% glycerol. Microsomes were frozen on dry ice and stored at −80° C. The protein concentration in microsomes was determined by the Bradford method (Bradford, 1976).
(§2) Fatty acid elongase activity was measured essentially as described in Hlousek-Radojcic, A. et al., Plant J. 8:803–809 (1995). Briefly, the standard elongation reaction mix contained 80 mM Hepes-KOH, pH 7.2, 20 mM MgCl2, 500 μM NADPH, 1 mM ATP, 100 μM malonyl-CoA, 10 μM CoA-SH and 15 μM radioactive acyl-CoA substrate. The radiolabeled substrate was either [1^−14C]18:1-CoA (50 uCi μmol^−1), [1^−14C]18:0-CoA (55 uCi μmol^−1), or [1^−14C]16:0-CoA (54 uCi μmol^−1). The reaction was initiated by the addition of yeast microsomes (5 μg protein) and the mixture incubated at 30° C. for the indicated period of time. The final reaction volume was 25 μl.
(§3) Methyl esters of the acyl-CoA elongation products were prepared as described in Example 1. Methyl esters were separated on reversed phase silica gel KC18 TLC plates (Whatman, […] thick), quantified by phosphorimaging, and analyzed on by ImageQuant software (Molecular Dynamics, Inc., Sunnyvale, Calif.). The detection limit for each product is about 0.001 nanomoles per min. per mg microsomal protein, depending on the phosphorimage exposure time.
(§4) Yeast cultures containing full-length EL1 in λYES and full-length EL2 in pYEUra3 were grown in the presence of galactose or glucose as described in Example 2. Microsomes were then prepared from each of the cultures and fatty acid elongation assays were carried out as described in Example 2.
(§5) In the first experiment, microsomes were prepared from galactose-induced cultures of EL1, EL2 and FAE1, and incubated with either [1-^14C] 18:0 acyl-CoA or [1-^14C] 18:1 acyl-CoA as substrate. The amounts of various reaction products synthesized after 30 minutes (min) were determined as described in Example 2.
In a second experiment, microsomes were prepared from galactose-induced and from glucose-repressed yeast cultures containing EL1 or EL2 coding sequences. The microsomal preparations were incubated with either 18:0 acyl-CoA or 18:1 acyl-CoA as substrate and the fatty acid reaction products determined as described above. […]

[2] = assay type: biochemical, Saccharomyces cerevisiae; details: for (%) 20:1 acyl CoA / (%) 22:1 acyl CoA / (%) 24:1 acyl CoA / (%) 26:1 acyl CoA / (%) Total / Rate, 20:1 acyl CoA / Rate, 22:1 acyl CoA / Rate, 24:1 acyl CoA / Rate, 26:1 acyl CoA / Rate, Total: second experiment
Procedure: as §1, §2, §3, §4, §5
In a second experiment, microsomes were prepared from galactose-induced and from glucose-repressed yeast cultures containing EL1 or EL2 coding sequences. The microsomal preparations were incubated with either 18:0 acyl-CoA or 18:1 acyl-CoA as substrate and the fatty acid reaction products determined as described above.

[3] = 18:0-CoA substrate, +Galactose (induced)
[4] = 18:0-CoA substrate, +Glucose (uninduced)
[5] = 18:0-CoA substrate, galactose-induced, 30 min, first experiment
[6] = +Gal, standard reaction mix, average of two experiments
[7] = +Glu, standard reaction mix, one experiment
[8] = galactose-induced, −A&C (ATP and Coenzyme A omitted), average of two experiments
[9] = galactose-induced, −ATP, average of two experiments
[10] = galactose-induced, −CoA, average of two experiments
[11] = 18:1-CoA substrate, +Galactose (induced)
[12] = 18:1-CoA substrate, +Glucose (uninduced)
[13] = 18:1-CoA substrate, galactose-induced, 30 min, first experiment

B1: EL2: Arabidopsis β-keto acyl synthase gene product (SEQ ID NO:4) expressed in yeast microsomes (protein, listed as Arabidopsis thaliana)
chain: MDYPMKKVKIFFNYLMAHRFKLCFLPLMVAIAVEASRLSTQDLQNFYLYLQNNHTSLTMFFLYLALGSTLYLMTRPKPVYLVDFSCYLPPSHLKASTQRIMQHVRLVREAGAWKQESDYLMDFCEKILERSGLGQETYVPEGLQTLPLQQNLAVSRIETEEVIIGAVDNLFRNTGISPSDIGILVVNSSTFNPTPSLSSILVNKFKLRDNIKSLNLGGMGCSAGVIAIDAAKSLLQVHRNTYALVVSTENITQNLYMGNNKSMLVTNCLFRIGGAAILLSNRSIDRKRAKYELVHTVRVHTGADDRSYECATQEEDEDGIVGVSLSKNLPMVAARTLKINIATLGPLVLPISEKFHFFVRFVKKKFLNPKLKHYIPDFKLAFEHFCIHAGGRALIDEMEKNLHLTPLDVEASRMTLHRFGNTSSSSIWYELAYTEAKGRMTKGDRIWQIALGSGFKCNSSVWVALRNVKPSTNNPWEQCLHKYPVEIDIDLKE
(%) 20:0 acyl CoA [1, 3]: 43.1% | (%) 22:0 acyl CoA [1, 3]: 17.8% | (%) 24:0 acyl CoA [1, 3]: 19.1% | (%) 26:0 acyl CoA [1, 3]: 20.0% | (%) Total [1, 3]: 100.0% | Rate, 20:0 acyl CoA [1, 3]: 0.107 Nanomoles/minute/mg of microsomal protein | Rate, 22:0 acyl CoA [1, 3]: 0.044 Nanomoles/minute/mg of microsomal protein | Rate, 24:0 acyl CoA [1, 3]: 0.048 Nanomoles/minute/mg of microsomal protein | Rate, 26:0 acyl CoA [1, 3]: 0.050 Nanomoles/minute/mg of microsomal protein | Rate, Total [1, 3]: 0.249 Nanomoles/minute/mg of microsomal protein | (%) 20:0 acyl CoA [1, 4]: 81.3% | (%) 22:0 acyl CoA [1, 4]: 5.1% | (%) 24:0 acyl CoA [1, 4]: 13.6% | (%) 26:0 acyl CoA [1, 4]: 0.0% | (%) Total [1, 4]: 100.0% | Rate, 20:0 acyl CoA [1, 4]: 0.030 Nanomoles/minute/mg of microsomal protein | Rate, 22:0 acyl CoA [1, 4]: 0.002 Nanomoles/minute/mg of microsomal protein | Rate, 24:0 acyl CoA [1, 4]: 0.005 Nanomoles/minute/mg of microsomal protein | Rate, 26:0 acyl CoA [1, 4]: 0.000 Nanomoles/minute/mg of microsomal protein | Rate, Total [1, 4]: 0.037 Nanomoles/minute/mg of microsomal protein | effect of omission of ATP and/or CoA on overall amounts of VLCFAs synthesized ([1]; 18:0-CoA substrate, galactose-induced): does not have a significant effect | (%) 20:0 acyl-CoA product [1, 5]: 41.8% | (%) 22:0 acyl-CoA product [1, 5]: 20.7% | (%) 24:0 acyl-CoA product [1, 5]: 20.3% | (%) 26:0 acyl-CoA product [1, 5]: 17.2% | (%) Total acyl-CoA products [1, 5]: 100.0% | Rate, 20:0 acyl-CoA product [1, 5]: 0.108 Nanomoles/minute/mg of microsomal protein | Rate, 22:0 acyl-CoA product [1, 5]: 0.053 Nanomoles/minute/mg of microsomal protein | Rate, 24:0 acyl-CoA product [1, 5]: 0.052 Nanomoles/minute/mg of microsomal protein | Rate, 26:0 acyl-CoA product [1, 5]: 0.044 Nanomoles/minute/mg of microsomal protein | Rate, Total acyl-CoA products [1, 5]: 0.258 Nanomoles/minute/mg of microsomal protein | 20:0 product as a percent of total products formed [1, 6]: 47.1% | 22:0 product as a percent of total products formed [1, 6]: 19.1% | 24:0 product as a percent of total products formed [1, 6]: 19.4% | 26:0 product as a percent of total products formed [1, 6]: 14.5% | Total products as a percent of total products formed [1, 6]: 100.0% | 20:0 product as a percent of total products formed [1, 7]: 54.5% | 22:0 product as a percent of total products formed [1, 7]: 17.1% | 24:0 product as a percent of total products formed [1, 7]: 5.8% | 26:0 product as a percent of total products formed [1, 7]: 22.6% | Total products as a percent of total products formed [1, 7]: 100.0% | increase in overall elongase activity on induction with galactose, 18:0 acyl CoA substrate ([1]; galactose-induced vs glucose): ~7 fold | 20:0 product as a percent of total products formed [1, 8]: 38.0% | 22:0 product as a percent of total products formed [1, 8]: 15.9% | 24:0 product as a percent of total products formed [1, 8]: 18.4% | 26:0 product as a percent of total products formed [1, 8]: 27.8% | Total products as a percent of total products formed [1, 8]: 100.0% | 20:0 product as a percent of total products formed [1, 9]: 34.1% | 22:0 product as a percent of total products formed [1, 9]: 16.4% | 24:0 product as a percent of total products formed [1, 9]: 20.8% | 26:0 product as a percent of total products formed [1, 9]: 28.9% | Total products as a percent of total products formed [1, 9]: 100.0% | 20:0 product as a percent of total products formed [1, 10]: 45.3% | 22:0 product as a percent of total products formed [1, 10]: 19.2% | 24:0 product as a percent of total products formed [1, 10]: 19.9% | 26:0 product as a percent of total products formed [1, 10]: 15.8% | Total products as a percent of total products formed [1, 10]: 100.0% | 18:0-CoA elongation activity, +Glu ([1]; microsomes from glucose-grown cultures, standard reaction mix): .033 nanomoles/minute/mg of microsomal protein | increase in 18:1 CoA elongation, microsomes from induced vs uninduced cells [2]: ~2 fold | (%) 20:1 acyl CoA [2, 11]: 100.0% | (%) 22:1 acyl CoA [2, 11]: 0.0% | (%) 24:1 acyl CoA [2, 11]: 0.0% | (%) 26:1 acyl CoA [2, 11]: 0.0% | (%) Total [2, 11]: 100.0% | Rate, 20:1 acyl CoA [2, 11]: 0.089 Nanomoles/minute/mg of microsomal protein | Rate, 22:1 acyl CoA [2, 11]: 0.000 Nanomoles/minute/mg of microsomal protein | Rate, 24:1 acyl CoA [2, 11]: 0.000 Nanomoles/minute/mg of microsomal protein | Rate, 26:1 acyl CoA [2, 11]: 0.000 Nanomoles/minute/mg of microsomal protein | Rate, Total [2, 11]: 0.089 Nanomoles/minute/mg of microsomal protein | (%) 20:1 acyl CoA [2, 12]: 100.0% | (%) 22:1 acyl CoA [2, 12]: 0.0% | (%) 24:1 acyl CoA [2, 12]: 0.0% | (%) 26:1 acyl CoA [2, 12]: 0.0% | (%) Total [2, 12]: 100.0% | Rate, 20:1 acyl CoA [2, 12]: 0.043 Nanomoles/minute/mg of microsomal protein | Rate, 22:1 acyl CoA [2, 12]: 0.000 Nanomoles/minute/mg of microsomal protein | Rate, 24:1 acyl CoA [2, 12]: 0.000 Nanomoles/minute/mg of microsomal protein | Rate, 26:1 acyl CoA [2, 12]: 0.000 Nanomoles/minute/mg of microsomal protein | Rate, Total [2, 12]: 0.043 Nanomoles/minute/mg of microsomal protein | (%) 20:1 acyl-CoA product [2, 13]: 84.1% | (%) 22:1 acyl-CoA product [2, 13]: 15.9% | (%) 24:1 acyl-CoA product [2, 13]: 0.0% | (%) 26:1 acyl-CoA product [2, 13]: 0.0% | (%) Total acyl-CoA products [2, 13]: 100.0% | Rate, 20:1 acyl-CoA product [2, 13]: 0.091 Nanomoles/minute/mg of microsomal protein | Rate, 22:1 acyl-CoA product [2, 13]: 0.017 Nanomoles/minute/mg of microsomal protein | Rate, 24:1 acyl-CoA product [2, 13]: 0.0 Nanomoles/minute/mg of microsomal protein | Rate, 26:1 acyl-CoA product [2, 13]: 0.0 Nanomoles/minute/mg of microsomal protein | Rate, Total acyl-CoA products [2, 13]: 0.108 Nanomoles/minute/mg of microsomal protein
